1 substance from PMC4666614, “Identification of New Regions in HIV-1 gp120 Variable 2 and 3 Loops that Bind to α4β7 Integrin Receptor” (PLoS ONE, 2015) can be followed below.

The test has as its target α4β7 integrin receptor on RPMI8866 cells (human (endogenous in RPMI8866)) (UniProt P13612).

Sequence of α4β7 integrin receptor on RPMI8866 cells (human (endogenous in RPMI8866)) (P13612 34-1032, chain 1 of 2): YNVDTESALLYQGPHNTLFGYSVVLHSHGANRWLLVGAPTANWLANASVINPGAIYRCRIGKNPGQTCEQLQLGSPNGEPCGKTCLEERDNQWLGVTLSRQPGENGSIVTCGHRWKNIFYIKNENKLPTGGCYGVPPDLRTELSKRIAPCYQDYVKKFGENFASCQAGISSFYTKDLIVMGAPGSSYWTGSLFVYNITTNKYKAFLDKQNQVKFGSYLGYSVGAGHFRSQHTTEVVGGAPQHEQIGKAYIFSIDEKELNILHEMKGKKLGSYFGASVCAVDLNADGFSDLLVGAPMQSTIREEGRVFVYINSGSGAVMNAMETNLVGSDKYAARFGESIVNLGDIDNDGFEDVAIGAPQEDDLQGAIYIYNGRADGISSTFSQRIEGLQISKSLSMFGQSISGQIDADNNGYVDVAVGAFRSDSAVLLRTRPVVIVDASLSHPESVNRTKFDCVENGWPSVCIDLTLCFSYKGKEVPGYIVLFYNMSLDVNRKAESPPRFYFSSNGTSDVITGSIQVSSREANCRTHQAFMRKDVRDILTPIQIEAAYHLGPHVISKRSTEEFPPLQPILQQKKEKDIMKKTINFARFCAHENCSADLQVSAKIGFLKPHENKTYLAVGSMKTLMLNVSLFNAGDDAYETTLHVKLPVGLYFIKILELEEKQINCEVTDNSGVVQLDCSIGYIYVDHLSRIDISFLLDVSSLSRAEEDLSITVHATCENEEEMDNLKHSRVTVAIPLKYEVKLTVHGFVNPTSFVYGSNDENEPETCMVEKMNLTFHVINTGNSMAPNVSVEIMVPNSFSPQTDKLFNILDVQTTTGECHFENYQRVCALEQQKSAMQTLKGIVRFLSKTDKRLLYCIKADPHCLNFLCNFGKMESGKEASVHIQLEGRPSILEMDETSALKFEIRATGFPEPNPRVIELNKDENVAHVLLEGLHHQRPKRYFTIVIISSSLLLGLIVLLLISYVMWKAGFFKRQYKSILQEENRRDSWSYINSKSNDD
Sequence of α4β7 integrin receptor on RPMI8866 cells (human (endogenous in RPMI8866)) (P26010 20-798, chain 2 of 2, further chain): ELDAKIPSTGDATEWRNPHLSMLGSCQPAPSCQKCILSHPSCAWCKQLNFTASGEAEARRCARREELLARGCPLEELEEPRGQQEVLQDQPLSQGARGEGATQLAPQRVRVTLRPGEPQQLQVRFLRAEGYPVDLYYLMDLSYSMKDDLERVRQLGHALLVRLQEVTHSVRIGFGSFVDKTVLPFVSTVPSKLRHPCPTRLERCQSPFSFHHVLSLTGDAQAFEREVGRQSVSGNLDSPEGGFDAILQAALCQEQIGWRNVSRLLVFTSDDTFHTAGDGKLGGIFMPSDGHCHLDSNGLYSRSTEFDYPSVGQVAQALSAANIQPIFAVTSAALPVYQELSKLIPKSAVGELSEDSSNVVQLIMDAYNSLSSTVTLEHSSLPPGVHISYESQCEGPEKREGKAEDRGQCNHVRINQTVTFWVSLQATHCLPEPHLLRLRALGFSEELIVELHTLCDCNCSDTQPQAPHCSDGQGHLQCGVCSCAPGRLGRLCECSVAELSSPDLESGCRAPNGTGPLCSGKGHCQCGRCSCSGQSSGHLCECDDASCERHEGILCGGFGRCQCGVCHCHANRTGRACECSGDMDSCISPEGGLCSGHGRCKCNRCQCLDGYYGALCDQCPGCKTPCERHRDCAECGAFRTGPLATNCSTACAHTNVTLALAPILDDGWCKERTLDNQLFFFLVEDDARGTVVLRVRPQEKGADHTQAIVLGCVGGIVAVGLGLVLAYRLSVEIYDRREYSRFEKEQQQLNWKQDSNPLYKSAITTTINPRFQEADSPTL

“HIV-1 envelope protein on 92TH023 virions (primary virus, subtype CRF01_AE) (natural protein)” gave a % inhibition of α4β7 binding to MAdCAM-1 at p24 0.75–3 ng/well of 25 to 35%.
